Test results as given in patent US20230227568A1 (Pieris, published 2023).
Each block holds one binder with its values, some of them ahead of it.

What was measured:
human 4-1BB on cells [1] = target: T1, human 4-1BB on cells (human, UniProt Q07011 24-255); assay: cell-based or functional assay
human 4-1BB on cells [2] = target: T1, human 4-1BB on cells; assay: flow cytometry, Flp-In-CHO::hu4-1BB cells
Outline: (§1)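 Flp-In CHO cells stably expressing human or cynomolgus 4-1BB (mock-transfected control), 5×10⁴/well, incubated 1 h on ice with dilution series of test proteins. Binding detected with rabbit anti-NGAL or Alexa 488 anti-human IgG (30 min, ice); geometric mean fluorescence fitted by four-parameter nonlinear regression.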

[3] = target: T2, cynomolgus 4-1BB on CHO cells (cynomolgus, UniProt A9YYE7 24-254); assay: flow cytometry, Flp-In-CHO::cyno4-1BB cells
T2 construct: also called Flp-In-CHO::cyno4-1BB; cynomolgus 4-1BB-expressing CHO cells
T2 sequence (A9YYE7 entry or part of it limits assumed): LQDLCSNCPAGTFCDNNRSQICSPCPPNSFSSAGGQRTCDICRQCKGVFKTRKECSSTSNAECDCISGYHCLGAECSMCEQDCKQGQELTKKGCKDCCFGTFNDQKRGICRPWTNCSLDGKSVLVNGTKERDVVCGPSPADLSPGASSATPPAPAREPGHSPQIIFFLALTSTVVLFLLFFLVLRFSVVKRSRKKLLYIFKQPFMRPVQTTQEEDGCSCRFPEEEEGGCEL
Outline: as §1

[4] = target: T3, recombinant hu4-1BB-His (human 4-1BB with a C-terminal polyhistidine tag, R&D Systems) (human, UniProt Q07011 24-186); assay: ELISA, hu4-1BB-His coated, detection anti-NGAL-HRP
T3 construct: Bought; not shown: C-terminal polyhistidine tag
Outline: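 Plates coated with hu4-1BB-His (1 μg/mL, overnight, 4° C) and blocked with 2% BSA; test proteins at 100 to 0.002 nM bound 1 h at room temperature. Detection by anti-NGAL-HRP with fluorogenic substrate; EC₅₀ from 1:1 sigmoidal fit, slope fixed to one.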

hu4-1BB-Fc (R&D Systems) = target: T4, hu4-1BB-Fc (R&D Systems) (human, UniProt Q07011 24-186); assay: SPR (Biacore 8K), hu4-1BB-Fc captured by anti-human IgG Fc; apparent value, 1:1 fit
T4 construct: Bought; also called human 4-1BB; not shown: human IgG Fc of the bought fusion
Outline: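 hu4-1BB-Fc at 0.3 μg/mL captured for 180 s on amine-coupled anti-human IgG Fc (CM5 chip). Analyte contact 180 s, dissociation 1200 s or 3000 s, 30 μL/min, 25° C. Double-referenced sensorgrams fitted to a 1:1 binding model.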

human 4-1BB on cells [5] = target: T1, human 4-1BB on cells; assay: flow cytometry on CHO cells stably transfected with human 4-1BB, anti-NGAL detection, GeoMean BL1-H
Experimental: (§2) 5×10⁴ cells per well were incubated for 1 h in ice-cold PBS containing 5% fetal calf serum (PBS-FCS). A dilution series of the tested multimeric proteins (SEQ ID NOs: 38-44 and 46-55), the 4-1BB-targeting lipocalin mutein as included in the multimeric proteins (SEQ ID NO: 64) or the GPC3-targeting lipocalin SEQ ID NO: 90 were added to the cells and incubated for 1 h on ice. Cells were washed twice with PBS and then incubated with a rabbit anti-NGAL or a goat anti-human IgG labeled with fluorescent dye Alexa 488 for 30 min on ice. Human IgG4 isotype (SEQ ID NOs: 29 and 30) and lipocalin mutein SEQ ID NO: 8 were tested as a negative control. Cells were subsequently washed and analyzed using iQue Flow cytometer (Intellicyte Screener). Mean geometric fluorescent signals were plotted and fitted with Graphpad software using nonlinear regression (shared bottom, four parameters, variable slope).
(§3) Target-specific binding of hexavalent trimeric proteins to human 4-1BB-, OX40- or PD-L1-expressing cells was assessed by flow cytometry as described in Example 5, using CHO cells stably transfected with human 4-1BB, human OX40 or human PD-L1 (Flp-In system; Life Technologies).

[6] = target: T5, human GPC3 on HepG2 cells (human, UniProt P51654 25-554); assay: flow cytometry, HepG2 cells
T5 construct: whole, on cells; Endogenous GPC3 of the tumor cell line; also called GPC3-positive tumor cell line HepG2; human GPC3-expressing HepG2 cells
T5 sequence (P51654 25-554 limits assumed): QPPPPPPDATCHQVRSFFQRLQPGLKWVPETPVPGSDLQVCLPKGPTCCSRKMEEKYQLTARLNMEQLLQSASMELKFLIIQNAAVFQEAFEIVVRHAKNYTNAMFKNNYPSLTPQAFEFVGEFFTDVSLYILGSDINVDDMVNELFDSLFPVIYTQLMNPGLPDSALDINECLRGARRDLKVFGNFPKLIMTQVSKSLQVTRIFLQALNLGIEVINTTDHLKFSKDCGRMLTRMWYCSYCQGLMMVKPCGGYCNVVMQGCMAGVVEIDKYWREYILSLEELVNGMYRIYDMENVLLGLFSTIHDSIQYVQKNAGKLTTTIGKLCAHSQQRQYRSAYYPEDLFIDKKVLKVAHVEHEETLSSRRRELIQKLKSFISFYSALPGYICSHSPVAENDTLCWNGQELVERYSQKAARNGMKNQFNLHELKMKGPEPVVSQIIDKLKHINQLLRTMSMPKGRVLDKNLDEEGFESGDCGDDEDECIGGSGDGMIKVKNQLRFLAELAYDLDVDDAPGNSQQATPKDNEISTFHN
Experimental: (§4) GPC3-positive tumor cell line HepG2 was cultured in Dulbecco's Modified Eagle's Medium ([…], Pan Biotech) supplemented with 10% Fetal Calf Serum (Sigma-Aldrich) and in cell culture flasks according to manufacturer's instruction (37° C., 5% CO₂ atmosphere).
as §2

[7] = target: T6, huGPC3-His (human GPC3 with C-terminal polyhistidine tag, R&D Systems) (human, UniProt P51654 25-559, limits assumed); assay: ELISA, huGPC3-His coated, detection anti-NGAL-HRP
T6 construct: Bought; not shown: C-terminal polyhistidine tag
T6 sequence (P51654 25-559 limits assumed): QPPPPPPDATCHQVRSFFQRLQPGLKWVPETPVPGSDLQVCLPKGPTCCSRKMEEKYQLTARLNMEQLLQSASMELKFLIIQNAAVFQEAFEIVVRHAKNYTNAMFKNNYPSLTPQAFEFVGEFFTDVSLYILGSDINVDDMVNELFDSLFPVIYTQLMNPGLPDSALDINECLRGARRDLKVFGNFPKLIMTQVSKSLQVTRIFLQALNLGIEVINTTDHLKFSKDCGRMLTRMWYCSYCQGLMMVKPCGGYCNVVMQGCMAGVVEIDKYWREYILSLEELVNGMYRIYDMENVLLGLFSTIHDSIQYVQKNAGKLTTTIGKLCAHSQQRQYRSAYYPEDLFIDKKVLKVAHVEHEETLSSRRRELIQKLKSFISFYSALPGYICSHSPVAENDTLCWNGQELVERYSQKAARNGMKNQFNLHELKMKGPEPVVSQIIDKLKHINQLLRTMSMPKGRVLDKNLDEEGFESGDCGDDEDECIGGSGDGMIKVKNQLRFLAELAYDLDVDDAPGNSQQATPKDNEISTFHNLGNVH
Experimental: (§5) Recombinant hu4-1BB-His (human 4-1BB with a C-terminal polyhistidine tag, R&D Systems) at the concentration of 1 μg/mL in PBS was coated overnight on microtiter plates at 4° C. After washing with PBS-0.05% T (PBS supplemented with 0.05% (v/v) Tween 20), the plates were blocked with 2% BSA (w/v) in PBS-0.1% T (PBS supplemented with 0.1% (v/v) Tween 20) for 1 h at room temperature. After washing with 100 μL PBS-0.05% T five times, exemplary multimeric proteins (SEQ ID NOs: 38-44 and 46-53) or 4-1BB-specific lipocalin mutein as included in the multimeric protein (SEQ ID NO: 64) at different concentrations, ranging from 100 to 0.002 nM, were added to the wells and incubated for 1 h at room temperature, followed by another wash step. Bound molecules under study were detected by incubation with 1:1000 diluted anti-NGAL-HRP in PBS-0.1% T-2% BSA. After an additional wash step, fluorogenic HRP substrate (QuantaBlu, Thermo) was added to each well and the fluorescence intensity was detected using a fluorescence microplate reader.
The same ELISA setup was also employed to determine the binding potency of exemplary bispecific multimeric proteins (SEQ ID NO: 54 and SEQ ID NO: 55) to GPC3, where huGPC3-His (human GPC3 with C-terminal polyhistidine tag, R&D Systems) was instead coated on a microtiter plate. The testing agents were similarly titrated and bound agents detected.

[8] = target: T6, huGPC3-His (human GPC3 with C-terminal …); assay: dual-binding ELISA, huGPC3-His coated, detection with biotinylated hu4-1BB-His and Extravidin-HRP
Experimental: Recombinant huGPC3-His (human GPC3 with C-terminal polyhistidine tag, R&D Systems) at the concentration of 1 μg/mL in PBS was coated overnight on microtiter plates at 4° C. After washing with PBS-0.05% T (PBS supplemented with 0.05% (v/v) Tween 20), the plates were blocked with 2% BSA (w/v) in PBS-0.1% T (PBS supplemented with 0.1% (v/v) Tween 20) for 1 h at room temperature. After washing with 100 μL PBS-0.05% T five times, exemplary multimeric proteins (SEQ ID NOs: 54 and 55) at different concentrations, ranging from 100 to 0.002 nM, were added to the wells and incubated for 1 h at room temperature, followed by another wash step. Bound molecules under study were detected by incubation with 1 μg/mL recombinant hu4-1BB-His (biotinylated human 4-1BB with C-terminal polyhistidine tag, Sino Biological) in PBS-0.1% T-2% BSA for 1 h. This step was followed by a further wash step and incubation with 1:5000 diluted Extravidin-HRP in PBS-0.1% T-2% BSA. After an additional wash step, fluorogenic HRP substrate (QuantaBlu, Thermo) was added to each well and the fluorescence intensity was detected using a fluorescence microplate reader.

[9] = target: T3, recombinant hu4-1BB-His (human 4-1BB …); assay: ELISA, hu4-1BB-His coated on the plate, bound agent detected with anti-NGAL-HRP
Experimental: C-terminal His-tagged 4-1BB or GPC3 was coated on a microtiter plate, and the tested agents were titrated starting with the highest concentration of 100 nM. Bound agents under study were detected via anti-NGAL-HRP. The data was fit with a 1:1 binding model with the EC₅₀ value and the maximum signal as free parameters, and a slope that was fixed to one.
as §5

[10] = target: T5, human GPC3 on HepG2 cells; assay: flow cytometry on HepG2 cells (human GPC3), anti-NGAL detection, GeoMean BL1-H [Cont'd) C]
Experimental: as §4, §2

human 4-1BB on cells [11] = target: T1, human 4-1BB on cells; assay: flow cytometry on Flp-In-CHO::huCD137 (human 4-1BB) cells, anti-NGAL detection, GeoMean BL1-H
Experimental: (§6) CHO cells were stably transfected with human 4-1BB, cynomolgus 4-1BB, or a mock control using the Flp-In system (Life Technologies) according to the manufacturer's instructions. Transfected CHO cells were maintained in Ham's F12 medium (Life Technologies) supplemented with 10% Fetal Calf Serum (Biochrom) and 500 μg/ml Hygromycin B (Roth). Cells were cultured in cell culture flasks according to manufacturer's instruction (37° C., 5% CO₂ atmosphere).
as §2

human PD-L1 on CHO cells = target: T7, human PD-L1 on CHO cells (human, UniProt Q9NZQ7 19-290); assay: flow cytometry on CHO cells stably transfected with human PD-L1, anti-NGAL detection, GeoMean BL1-H
T7 construct: whole, on cells; Stably transfected CHO cells; also called Flp-In-CHO::huPD-L1; human PD-L1-expressing CHO cells
T7 sequence (Q9NZQ7 19-290): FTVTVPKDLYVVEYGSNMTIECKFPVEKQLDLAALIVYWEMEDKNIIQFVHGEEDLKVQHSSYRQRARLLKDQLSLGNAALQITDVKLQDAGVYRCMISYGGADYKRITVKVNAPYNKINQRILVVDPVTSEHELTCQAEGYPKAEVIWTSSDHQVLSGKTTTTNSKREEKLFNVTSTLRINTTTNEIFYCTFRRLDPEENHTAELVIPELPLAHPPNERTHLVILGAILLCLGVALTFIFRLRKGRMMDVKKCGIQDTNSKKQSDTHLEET
Experimental: as §2, §3

[12] = target: T2, cynomolgus 4-1BB on CHO cells; assay: flow cytometry on Flp-In-CHO::cyCD137 (cynomolgus 4-1BB) cells, anti-NGAL detection, GeoMean BL1-H [Cont'd) B]
Experimental: as §6, §2

T1 sequence (Q07011 24-255): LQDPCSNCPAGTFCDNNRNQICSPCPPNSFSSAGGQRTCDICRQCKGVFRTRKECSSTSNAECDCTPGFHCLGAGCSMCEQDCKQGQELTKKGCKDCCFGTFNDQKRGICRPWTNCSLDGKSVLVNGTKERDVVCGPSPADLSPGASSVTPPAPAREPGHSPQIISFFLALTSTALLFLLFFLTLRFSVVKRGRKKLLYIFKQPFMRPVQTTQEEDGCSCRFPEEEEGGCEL

EC50 [nM], 4-1BB bioassay (NFκB-luc2/4-1BB Jurkat luminescence), with HepG2 cells (human 4-1BB on cells [1]): 1 nM
EC50 (human 4-1BB on cells [2]): 1.5 nM
EC50 [3]: 3.36 nM
EC50 [4]: 0.12 nM
Kd (hu4-1BB-Fc (R&D Systems)): 0.24 nM
koff (hu4-1BB-Fc (R&D Systems)): 2.19e-05 s⁻¹
kon (hu4-1BB-Fc (R&D Systems)): 90400 M⁻¹ s⁻¹
EC50 (read off the curve) (human 4-1BB on cells [5]): ~2 nM
B1: multimeric protein SEQ ID NO: 52 (designed binder)
chain: QDSTSDLIPAPPLSKVPLQQNFQDNQFHGKWYVVGQAGNIRLREDKDPIKMMATIYELKEDKSYDVTMVKFDDKKCMYDIWTFVPGSQPGEFTLGKIKSFPGHTSSLVRVVSTNYNQHAMVFFKFVFQNREEFYITLYGRTKELTSELKENFIRFSKSLGLPENHIVFPVPIDQCIDGGGGGSGGGGSGGGGSQDSTSDLIPAPPLSKVPLQQNFQDNQFHGKWYVVGQAGNIRLREDKDPIKMMATIYELKEDKSYDVTMVKFDDKKCMYDIWTFVPGSQPGEFTLGKIKSFPGHTSSLVRVVSTNYNQHAMVFFKFVFQNREEFYITLYGRTKELTSELKENFIRFSKSLGLPENHIVFPVPIDQCIDGGGGGSGGGGSGGGGSGVRLWATRQAMLGQVHEVPEGWLIFVAEQEELYVRVQNGFRKVQLEARTPLGGSGGAPEQKLISEEDLGSHHHHHHHHHH

EC50 [nM], 4-1BB bioassay (NFκB-luc2/4-1BB Jurkat luminescence), with HepG2 cells (human 4-1BB on cells [1]): 0.69 nM
EC50 [6]: 2.98 nM
EC50 (human 4-1BB on cells [2]): 4.08 nM
EC50 [3]: 6.62 nM
EC50 [7]: 0.1 nM
Kd (hu4-1BB-Fc (R&D Systems)): 0.71 nM
koff (hu4-1BB-Fc (R&D Systems)): 5.99e-05 s⁻¹
kon (hu4-1BB-Fc (R&D Systems)): 84000 M⁻¹ s⁻¹
EC50 [8]: 1.3 nM
B2: bispecific multimeric protein SEQ ID NO: 55 (designed binder)
chain: QDSTSDLIPAPPLSKVPLQQNFQDNQFQGKWYVVGRAGNVGLREDKDPPKMWATIYELKEDKSYDVTNVRFARKKCTYSIGTFVPGSQPGEFTLGQIKSEPGGTANLVRVVSTNYNQHAMVFFKEVYQNREIFFIILYGRTKELTSELKENFIRFSKSLGLPENHIVFPVPIDQCIDGGGGGSGGGGSGGGGSGVRLWATRQAMLGQVHEVPEGWLIFVAEQEELYVRVQNGFRKVQLEARTPLGGGGSGGGGSGGGGSQDSTSDLIPAPPLSKVPLQQNFQDNQFHGKWYVVGQAGNIRLREDKDPIKMMATIYELKEDKSYDVTMVKFDDKKCMYDIWTFVPGSQPGEFTLGKIKSFPGHTSSLVRVVSTNYNQHAMVFFKFVFQNREEFYITLYGRTKELTSELKENFIRFSKSLGLPENHIVFPVPIDQCIDGGGSGGAPEQKLISEEDLGSHHHHHHHHHH

binding result [9]: no binding (tested: 100 nM)
binding result [10]: no binding (tested: about 200 nM)
binding result (human 4-1BB on cells [11]): no binding (tested: about 200 nM)
binding result (human PD-L1 on CHO cells): no binding (tested: about 7 nM)
binding result [12]: no binding (tested: about 200 nM)
B3: SEQ ID NO: 8 (designed binder)
lipocalin mutein: QDSTSDLIPAPPLSKVPLQQNFQDNQFHGKWYVVGLAGNAILREDKDPQKMYATIYELKEDKSYNVTSVLFRKKKCDYWIRTFVPGSQPGEFTLGNIKSYPGLTSYLVRVVSTNYNQHAMVFFKKVSQNREYFKITLYGRTKELTSELKENFIRFSKSLGLPENHIVFPVPIDQCIDG
